Experimental findings from PMC9817077, “Simple, Reliable Protocol for High-Yield Solubilization of Seedless Amyloid-β Monomer” (ACS Chemical Neuroscience, 2022) are described below.

What all share (format): physicochemical
Data set [1] in a line: AF4-MALS fractionation of re-solubilized samples. Here is the method:
Samples were analyzed using an AF4 frit inlet (FI) channel equilibrated in 1 mM NaOH, with a 250 μm spacer and a 1 kDa PES membrane, and in-line UV (280 nm; Shimadzu, U.K.), MALS, and RI detectors. Except where otherwise stated, the channel, associated pumps, autosampler, and detectors were purchased or loaned from Postnova Analytics (Landsberg am Lech, Germany). The RI detector was purged following equilibration, and the UV and RI detectors were then zeroed. […] The sample was separated in a 1 mM NaOH mobile phase, with 0.2 mL/min TIP and detector flow; the focus and cross-flow rates were also matched to one another and varied throughout the run.
Data processing and estimation of sample concentration, molecular weight, and recovery were carried out in the AF2000 Control software (Postnova Analytics, Landsberg am Lech, Germany), with additional data processing in GraphPad Prism version 8.3.0. […] We note that, although there is an isosbestic point nearby at 276 nm, the relatively rapid decrease in tyrosine absorbance and increase in tyrosinate absorbance to the right of this point mean that deprotonation still has a significant effect on the extinction coefficient at 280 nm. […] As a result, the tyrosine/tyrosinate extinction coefficient is more appropriate for analysis of the monomer and oligomer fractions in our AF4-MALS runs. Molecular weight values were calculated by fitting models to the UV280 and MALS signals. The molecular weights in Figure 2e were obtained using a fourth-degree Berry fit from 2.0 to 7.0 min, a linear Zimm fit from 7.0 to 12.5 min, and a third-degree Berry fit from 28.0 to 50.0 min. The molecular weights in Figure 3c were obtained using a linear Zimm fit. […] This summation tends toward an exact integral as Δt → 0, and the experimental parameter of Δt = 0.12 min was sufficiently small for the approximation to be reasonably accurate. The probability density function p(M), which gives the probability density of species with mass M, can be calculated as p(M) = dP(Mw ≤ M)/dM. However, when presenting the data on a logarithmic axis, peaks in the probability density function are horizontally stretched at low M and horizontally compressed at high M, meaning that the peak area is no longer proportional to the mass of material.

The nature of data set [2]: LC–MS check for chemical modification at high pH. Particulars: 50 mM NaOH.
A short description of data set [3]: SEC-MALS purification and analysis on Superdex 75. Here is the method:
To perform a further test for the presence of seeds, and determine whether the detected oligomers affected the self-assembly kinetics, Aβ(1-42) samples were purified by SEC, and their self-assembly kinetics were compared to those of unpurified samples. In summary, following the protocol used by Hellstrand et al.,[39] […] The fraction eluting from 13.6 to 14.6 min (at 1 mL/min) was collected on ice, diluted variably (60, 80, or 100%, i.e., undiluted) in the elution buffer to give a range of concentrations, supplemented with ThT from a concentrated stock, and used in ThT assays. This purification procedure was repeated several times with reproducible results, and a representative elugram is shown in Figure 6a. The UV absorbance and RI elugrams are very similar to those previously reported for in-house recombinant peptide purified according to the same protocol,[39] and the peak at ∼14 min has already been identified as the monomer. MALS analysis of the ROI from 13.6 to 14.6 min was challenging, as the very weak scattering signal meant that the Mw estimates were particularly sensitive to baseline subtraction errors. Nonetheless, the average Mw value of this ROI across three concordant replicates was 6460 ± 712 Da, where the error margins represent one standard deviation, consistent with the peak containing mostly monomer with a small but significant amount of contaminating oligomer. […] Samples were analyzed and purified in small batches using an analytical Superdex 75 column (GE Healthcare) equilibrated in 20 mM sodium phosphate buffer (pH 8) with 200 μM EDTA and 1 mM NaN3. The column was run with the TIP pump from the AF4 system (Postnova Analytics, Landsberg am Lech, Germany), and in-line UV (280 nm; Shimadzu, U.K.), MALS (Postnova Analytics, Landsberg am Lech, Germany), and RI (Postnova Analytics, Landsberg am Lech, Germany) detectors. The RI detector was purged following equilibration, and the UV and RI detectors were then zeroed. The sample was injected, with an injection volume of 50 μL, and run at 1.0 mL/min for 35 min. Between sample runs, blanks consisting of the same solvent without the Aβ(1-42) were loaded to check that the column was clean and to allow blank subtraction of the detector signals. Data processing and estimation of sample concentration, molecular weight, and recovery were carried out in the AF2000 Control software (Postnova Analytics, Landsberg am Lech, Germany), with final data processing in GraphPad Prism version 8.3.0. For preparative runs, the sample was collected at the end. […] Eluted Aβ was mixed and split into three aliquots; these were then diluted to 60, 80, or 100% (i.e., undiluted) their concentration in the same elution buffer and supplemented with 20 μM ThT from a 2 mM stock, as described in Hellstrand et al.[39] […]
For orientation: SEC sorts molecules by how far they enter the pores of the column.

The mark [4] stands for this setting: 50 mM NaOH, 20 μg injected, mean ± SD.
[5] abbreviates: 50 mM NaOH, geometric average Mw elugram, ROI 3.3–20.0 min.
The mark [6] stands for this setting: 5 min sonication in 50 mM NaOH (pH ≈ 12.5), 20 μg injected, 1 mM NaOH mobile phase, UV280, mean ± SD, n = 12.
The mark [7] stands for this setting: re-solubilized in 10 mM NaOH without HFIP, 20 μg injected, 1 mM NaOH mobile phase, UV280, mean ± SD.

“Aβ(1-42): Ultrapure recombinant Aβ(1-42) purchased from rPeptide, lyophilized from HFIP; disordered amyloid-forming peptide”: the “material eluting in peak 2” value in data set [1] (10 mM NaOH preparations with higher pH (≳10.0) after re-solubilization, 20 μg injected, mean ± SD) came to 18.30 ± 1.17 µg. In data set [1] (10 mM NaOH preparations with more neutral pH (≲8.0) after re-solubilization, 20 μg injected, mean ± SD), the “material eluting in peak 2” value came to 7.62 ± 2.20 µg. In addition, the “recovery in peak 1” value in data set [1] (10 mM NaOH preparations, more neutral samples (≲8.0), 20 μg injected, mean ± SD) was 6.32 ± 6.62 µg. Besides, the “fraction of sample eluting in peak 3” value in data set [1] (10 mM NaOH, relative to injected mass of 20 μg, ± SD) was around 11 ± 5%. Further, in data set [1] (setting [4]), the “recovery from the first two regions of interest (1.5–30.0 min)” value came to 19.90 ± 0.99 µg and the “total recovery across all three regions of interest” value amounted to 20.62 ± 1.19 µg. Further, in data set [1] (setting [5]), the “sample eluting in fractions suggestive of dimer or larger” value is 12% and the “sample eluting in fractions with Mw closer to the monomer” value was 88%. For the same substance, in data set [1] (50 mM NaOH, geometric mean of 10 concordant Mw elugrams, linear Zimm fit), the “Mw of eluting material from 4.0 to 5.0 min” value was around 4500 Da. Further, the “major peak of the molecular weight distribution” value in data set [1] (50 mM NaOH, sample eluting 3.3–20.0 min, from average elugram and UV280) is around 4500 Da. For the same substance, in data set [1] (setting [6]), the “material eluting in the peak 1 region (1.5–3.3 min)” value stood at 0.31 ± 0.17 µg; the “material eluting in the peak 2 region (3.3–30.0 min)” value was 19.59 ± 0.90 µg; the “material eluting in the peak 3 region (>30 min), nominal” value was 0.72 ± 0.32 µg. In data set [1] (setting [7]), the “material eluting in peak 1 (1.5–3.3 min)” value worked out at 3.99 ± 5.92 µg; the “material eluting in peak 2 (3.3–30.0 min), monomer and small oligomer” value stood at 11.73 ± 5.70 µg; the “material eluting in peak 3 (30.0–60.0 min)” value came out at 2.11 ± 0.95 µg. In addition, the “total material eluted in the AF4 run” value in data set [1] (re-solubilized in 10 mM NaOH, 20 μg injected, mean ± SD) stood at 17.82 ± 6.68 µg. Also, the “difference between mass spectra of samples sonicated for 5 and 30 min” value in data set [2] is “no obvious difference”. In data set [3] (50 mM NaOH sample, Superdex 75, 20 mM sodium phosphate pH 8, 200 μM EDTA, 1 mM NaN3, 1 mL/min, three concordant replicates, ± SD), the “average Mw of the SEC ROI from 13.6 to 14.6 min” value is 6460 ± 712 Da. The “total mass of Aβ(1-42) in the fraction collected from 13.6 to 14.6 min” value in data set [3] (50 μL of 1 mg/mL injected, Superdex 75, pH 8) is 28.4 ± 7.13 µg. Besides, the “concentration of the collected monomer fraction” value in data set [3] (fraction 13.6–14.6 min) is 6.29 µM. In addition, the “recovery in the collected monomer fraction” value in data set [3] (fraction 13.6–14.6 min, 50 μL of 1 mg/mL injected) was 56.8 % of the injected mass.
